# Patent US7655227 (Chugai, dated 2010)
# Positions count from the first letter of the chain named.
# B1: mouse monoclonal antibody #23-57-137-1 against human PTHrP (1-34) (antibody, V domains shown)
# VH: EVQLVESGGDLVKPGGSLKLSCAASGFTFSSYGMSWIRQTPDKRLEWVATISSGGSYTYYPDSVKGRFTISRDNAKNTLYLQMSSLKSEDTAMFYCARQTTMTYFAYWGQGTLVTVSA
# VL: QLVLTQSSSASFSLGASAKLTCTLSSQHSTYTIEWYQQQPLKPPKYVMDLKQDGSHSTGDGIPDRFSGSSSGADRYLSISNIQPEDEAMYICGVGDTIKEQFVYVFGGGTKVTVLG
# notes: Mouse antibody in hybridoma culture supernatant (FERM BP-5631); Lambda L-chain; also called MBC1
# B2: chimeric #23-57-137-1 antibody with L-chain λ chain C-region (antibody, IgG1, V domains shown)
# VH: B1 VH
# VL: B1 VL
# notes: Mouse V-regions joined to human H-chain C-region Cγ1 (IgG1) and human λ chain C-region (isotype Mcg+Ke+Oz-, EMBL X57819); Expressed in COS-7 cells; also called chimeric antibody (MBC1HcDNA/pCOS1 and MBC1L(λ)/neo)
# B3: chimeric #23-57-137-1 antibody with L-chain κ chain C-region (antibody, IgG1, V domains shown)
# VH: B1 VH
# VL: B1 VL
# notes: Mouse V-regions joined to human H-chain C-region Cγ1 (IgG1) and human κ chain C-region cloned from HEF-PM1k-gk; Expressed in COS-7 cells; also called chimeric antibody (MBC1HcDNA/pCOS1 and MBC1L(κ)/neo)
# B4: antibody having both a humanized H-chain version “a” and a chimeric L-chain (antibody, V domains shown)
# VH: QVQLVESGGGVVQPGRSLRLSCAASGFTFSSYGMSWVRQAPGKGLEWVATISSGGSYTYYPDSVKGRFTISRDNSKNTLYLQMNSLRAEDTAVYYCARQTTMTYFAYWGQGTLVTVSS
# VL: B1 VL
# notes: Human Cγ1 H-chain C-region
# B5: humanized #23-57-137-1 antibody having H-chain version “a” and L-chain version “l” (antibody, IgG1, V domains shown)
# VH: B4 VH
# VL: QLVLTQSPSASASLGASVKLTCTLSSQHSTYTIEWYQQQPEKGPKYVMDLKQDGSHSTGDGIPDRFSGSSSGAERYLTISSLQSEDEADYYCGVGDTIKEQFVYVFGGGTKLTVLG
# notes: Human Cγ1 (IgG1) and human λ C-regions; expressed in COS-7 cells; also called hMBC1Llλ
# B6: humanized #23-57-137-1 antibody having H-chain version “a” and L-chain version “m” (antibody, IgG1, V domains shown)
# VH: B4 VH
# VL: B5 VL with K45R, V47L
# notes: Human Cγ1 (IgG1) and human λ C-regions; expressed in COS-7 cells; also called hMBC1Lmλ
# B7: humanized #23-57-137-1 antibody having H-chain version “a” and L-chain version “o” (antibody, IgG1, V domains shown)
# VH: B4 VH
# VL: B5 VL with K45R
# notes: Human Cγ1 (IgG1) and human λ C-regions; expressed in COS-7 cells; also called hMBC1Loλ
# B8: humanized #23-57-137-1 antibody having H-chain version “a” and L-chain version “t” (antibody, IgG1, V domains shown)
# VH: B4 VH
# VL: B5 VL with K45R, Y91I
# notes: Human Cγ1 (IgG1) and human λ C-regions; expressed in COS-7 cells; also called hMBC1Ltλ
# B9: humanized #23-57-137-1 antibody having H-chain version “a” and L-chain version “j” (antibody, IgG1, V domains shown)
# VH: B4 VH
# VL: B5 VL with V47L
# notes: Human Cγ1 (IgG1) and human λ C-regions; expressed in COS-7 cells; also called hMBC1Ljλ
# B10: hybrid antibody with humanized H-chain version a and L-chain m/hMBC1Laλ (mouse FR1,2/human FR3,4) (antibody, V domains shown)
# VH: B4 VH
# VL: QLVLTQSSSASFSLGASAKLTCTLSSQHSTYTIEWYQQQPLKPPKYVMDLKQDGSHSTGDGIPDRFSGSSSGAERYLTISSLQSEDEADYYCGVGDTIKEQFVYVFGGGTKLTVL
# notes: Human Cγ1 and human λ C-regions; expressed in COS-7 cells
# B11: humanized #23-57-137-1 antibody having H-chain version “a” and L-chain version “q” (antibody, IgG1, V domains shown)
# VH: B4 VH
# VL: B5 VL with V47L, Y91I
# notes: Human Cγ1 (IgG1) and human λ C-regions; expressed in COS-7 cells and in CHO cells; also called hMBC1Lqλ
# B12: hybrid antibody with humanized H-chain version a and L-chain hmmMBC1L(λ) (human FR1/mouse FR2,3,4) (antibody, V domains shown)
# VH: B4 VH
# VL: QLVLTQSPSASASLGASVKLTCTLSSQHSTYTIEWYQQQPLKPPKYVMDLKQDGSHSTGDGIPDRFSGSSSGADRYLSISNIQPEDEAMYICGVGDTIKEQFVYVFGGGTKVTVL
# notes: as for B10
# Target: T1, human PTHrP (1-34) (human)
# T1 construct: Coated on the ELISA plate at 1 ug/ml; Added at 1 ng/ml final in the cAMP neutralisation assay, where the species is not restated; also called parathyroid hormone-related peptide (1-34)
# Test: solid phase RIA of hybridoma culture supernatant
# Description: The screening of hybridomas was performed by determining the presence of PTHrP-recognition antibodies in the culture supernatant of the wells in which cell growth had been observed in HAT medium, by solid phase RIA method. The hybridomas were collected from the wells in which the binding ability to the PTHrP-recognition antibodies had been confirmed. The hybridomas thus obtained was suspended into RPMI-1640 medium containing 15% FCS supplemented with OPI-supplement (Sigma), followed by unification of the hybridomas by limiting dilution method.
row,binding result,Binder
1,binds,B1

# Target: T1, human PTHrP (1-34)
# Test: ELISA, plate coated with human PTHrP (1-34); COS-7 supernatant or purified antibody
# Description: An ELISA plate for the determination of antigen-binding ability was prepared as follows. Each well of a 96-well ELISA plate was coated with 100 µl of a coating buffer supplemented with 1 µg/ml of human PTHrP (1-34) (Peptide Research Institute), and then blocked with 200 µl of a dilution buffer. Each well was added with each of the serial dilutions of the COS-7 cell culture supernatant in which each of the chimeric antibodies had been expressed, or added with each of the serial dilutions of each of the chimeric antibodies per se in a purified form. After the plate was incubated at room temperature and washed with PBS-Tween 20, each well of the plate was added with 100 µl of a solution of alkaline phosphatase-conjugated goat anti-human IgG antibodies (TAGO). After the plate was incubated at room temperature and washed with PBS-Tween 20, each well of the plate was added with 1 mg/ml of a substrate solution ("Sigma 104"; p-nitrophenylphosphoric acid, SIGMA). The solution was measured on its absorbance at 405 nm using Microplate Reader (Bio Rad).
row,binding result,Binder
1,binds,B2
2,binds,B3

# Target: T1, human PTHrP (1-34)
# Test: ELISA, plate coated with human PTHrP (1-34)
# Description: An ELISA plate for determining antigen-binding ability was prepared as follows. Each well of a 96-well ELISA plate was coated with 100 μl of a coating buffer containing 1 μg/ml of human PTHrP (1-34) and then blocked with 200 μl of a dilution buffer. Subsequently, each well was added with each of the serial dilutions of the COS-7 cell culture supernatant in which each of the hybrid antibodies and humanized antibodies was expressed, or added with each of the serial dilutions of each of the hybrid antibodies and humanized antibodies in a purified form. The plate was incubated at room temperature and washed with PBS-Tween 20. Subsequently, each well was added with 100 μl of alkaline phosphatase-conjugated goat anti-human IgG antibody (TAGO). The plate was incubated at room temperature and washed with PBS-Tween 20. Subsequently, each well was added with 1 mg/ml of a substrate solution ("Sigma 104"; p-nitrophenylphosphoric acid, SIGMA). The solution was measured on its absorbance at 405 nm using Microplate Reader (Bio Rad).
row,binding result,Binder
1,binds,B4
2,binds,B5
3,binds,B6
4,binds,B7
5,binds,B8
6,binds,B9
7,binds,B10
8,binds,B11
9,binds,B12
